Source: PMC8932525 (The Journal of Cell Biology, 2022)

T1: importin-5 (Imp5) (UniProt O00410 1-1097)
T1 sequence (looked up): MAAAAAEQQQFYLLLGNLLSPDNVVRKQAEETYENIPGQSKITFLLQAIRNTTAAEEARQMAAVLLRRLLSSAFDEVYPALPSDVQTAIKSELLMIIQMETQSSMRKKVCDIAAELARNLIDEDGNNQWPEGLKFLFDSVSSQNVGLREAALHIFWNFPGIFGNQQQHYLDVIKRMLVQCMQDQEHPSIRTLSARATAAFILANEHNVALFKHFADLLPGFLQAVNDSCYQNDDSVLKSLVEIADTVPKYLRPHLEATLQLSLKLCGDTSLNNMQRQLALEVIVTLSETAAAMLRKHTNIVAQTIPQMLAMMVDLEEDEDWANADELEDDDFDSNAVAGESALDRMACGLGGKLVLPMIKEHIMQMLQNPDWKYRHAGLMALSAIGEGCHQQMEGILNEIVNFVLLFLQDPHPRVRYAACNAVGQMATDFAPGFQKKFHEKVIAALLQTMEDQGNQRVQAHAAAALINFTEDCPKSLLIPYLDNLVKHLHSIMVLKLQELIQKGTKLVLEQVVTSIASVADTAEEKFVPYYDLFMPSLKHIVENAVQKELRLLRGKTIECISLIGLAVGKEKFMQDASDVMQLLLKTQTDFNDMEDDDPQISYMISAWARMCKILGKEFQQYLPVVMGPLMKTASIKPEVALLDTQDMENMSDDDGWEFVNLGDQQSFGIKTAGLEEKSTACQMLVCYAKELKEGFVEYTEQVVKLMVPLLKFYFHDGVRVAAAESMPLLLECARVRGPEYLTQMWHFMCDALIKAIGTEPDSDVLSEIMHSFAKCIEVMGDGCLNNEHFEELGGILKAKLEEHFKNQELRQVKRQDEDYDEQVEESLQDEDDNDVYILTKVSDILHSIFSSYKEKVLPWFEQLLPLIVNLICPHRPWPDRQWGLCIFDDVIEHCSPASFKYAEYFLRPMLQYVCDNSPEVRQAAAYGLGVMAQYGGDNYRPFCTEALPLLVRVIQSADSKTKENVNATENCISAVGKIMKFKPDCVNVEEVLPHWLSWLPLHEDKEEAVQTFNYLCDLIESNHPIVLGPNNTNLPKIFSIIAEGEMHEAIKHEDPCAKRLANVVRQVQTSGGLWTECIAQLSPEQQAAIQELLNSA


Key:
[1] = biological target: nuclear pore complexes (NPCs) in endoKap-depleted digitonin-permeabilized HeLa cells (human (endogenous in HeLa)); experiment: permeabilized cell assay, confocal fluorescence microscopy
[2] = biological target: CRM1 (exportin 1/chromosomal maintenance 1) (UniProt O14980 1-1071); experiment: SPR
CRM1 (exportin 1/chromosomal maintenance 1), sequence (O14980 whole entry): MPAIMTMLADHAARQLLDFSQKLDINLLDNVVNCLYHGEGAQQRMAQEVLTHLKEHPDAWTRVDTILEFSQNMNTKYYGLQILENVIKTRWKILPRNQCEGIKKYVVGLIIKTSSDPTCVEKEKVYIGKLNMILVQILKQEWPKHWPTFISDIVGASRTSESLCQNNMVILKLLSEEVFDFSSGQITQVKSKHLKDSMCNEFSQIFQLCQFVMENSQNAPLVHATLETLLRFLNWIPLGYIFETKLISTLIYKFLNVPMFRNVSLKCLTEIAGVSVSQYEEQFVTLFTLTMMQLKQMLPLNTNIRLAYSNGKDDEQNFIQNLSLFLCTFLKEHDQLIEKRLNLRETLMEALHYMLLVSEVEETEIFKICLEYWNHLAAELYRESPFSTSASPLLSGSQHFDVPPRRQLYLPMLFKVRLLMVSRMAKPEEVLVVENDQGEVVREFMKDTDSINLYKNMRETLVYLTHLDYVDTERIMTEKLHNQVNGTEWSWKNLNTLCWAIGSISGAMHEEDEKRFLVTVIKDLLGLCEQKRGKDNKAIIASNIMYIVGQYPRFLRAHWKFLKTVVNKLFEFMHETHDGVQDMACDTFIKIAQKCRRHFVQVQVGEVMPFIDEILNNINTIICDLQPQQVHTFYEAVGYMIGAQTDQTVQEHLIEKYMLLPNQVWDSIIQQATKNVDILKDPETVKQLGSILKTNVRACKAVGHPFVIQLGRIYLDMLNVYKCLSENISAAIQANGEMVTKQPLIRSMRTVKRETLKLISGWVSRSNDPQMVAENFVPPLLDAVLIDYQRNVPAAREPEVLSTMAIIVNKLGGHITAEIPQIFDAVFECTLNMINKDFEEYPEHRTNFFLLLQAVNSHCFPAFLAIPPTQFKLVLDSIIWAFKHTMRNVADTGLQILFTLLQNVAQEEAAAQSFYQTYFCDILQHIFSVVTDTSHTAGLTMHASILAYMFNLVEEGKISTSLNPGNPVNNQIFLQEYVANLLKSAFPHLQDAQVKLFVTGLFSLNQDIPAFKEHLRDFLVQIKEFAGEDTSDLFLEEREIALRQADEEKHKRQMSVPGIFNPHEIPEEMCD

[3] = biological target: T1, importin-5 (Imp5); experiment: SPR

CRM1–Alexa Fluor 647, sequence (O14980 whole entry): as above
Kapβ1–Alexa Fluor 488, sequence (Q14974 whole entry): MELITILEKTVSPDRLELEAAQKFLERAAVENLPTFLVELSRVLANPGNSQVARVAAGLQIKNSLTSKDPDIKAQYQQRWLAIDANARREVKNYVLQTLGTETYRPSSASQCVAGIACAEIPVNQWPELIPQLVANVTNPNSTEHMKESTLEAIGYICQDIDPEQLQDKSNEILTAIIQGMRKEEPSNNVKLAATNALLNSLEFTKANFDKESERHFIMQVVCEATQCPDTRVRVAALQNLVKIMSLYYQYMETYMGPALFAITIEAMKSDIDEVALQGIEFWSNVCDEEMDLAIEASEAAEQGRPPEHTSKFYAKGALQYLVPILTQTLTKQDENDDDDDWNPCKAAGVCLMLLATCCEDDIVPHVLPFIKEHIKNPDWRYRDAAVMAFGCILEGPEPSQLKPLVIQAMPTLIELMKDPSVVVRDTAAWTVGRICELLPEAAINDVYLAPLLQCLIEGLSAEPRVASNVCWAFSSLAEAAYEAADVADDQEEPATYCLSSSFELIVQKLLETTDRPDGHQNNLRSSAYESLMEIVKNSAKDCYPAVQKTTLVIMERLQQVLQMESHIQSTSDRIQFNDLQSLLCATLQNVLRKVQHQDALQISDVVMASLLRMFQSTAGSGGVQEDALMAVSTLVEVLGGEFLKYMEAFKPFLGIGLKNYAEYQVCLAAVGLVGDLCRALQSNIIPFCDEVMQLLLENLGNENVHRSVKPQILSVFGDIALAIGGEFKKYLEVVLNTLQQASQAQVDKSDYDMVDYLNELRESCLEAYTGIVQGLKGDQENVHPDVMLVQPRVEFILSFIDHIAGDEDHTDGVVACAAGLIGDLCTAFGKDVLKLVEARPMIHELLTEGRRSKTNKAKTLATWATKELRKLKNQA

Molecule | Kd [1] [nM] | relative occupancy with 10 µM exoImp5 [1] [%] | Kd [2] [nM] | binding result [3] | other results
CRM1–Alexa Fluor 647 (from UniProt O14980 1-1071) (natural protein) | 500 | 59 | – | – | K (D,NPC) in the presence of 10 µM exoKapβ1 [1]: 2.8 µM; reduction of relative occupancy from the standalone value, with 10 µM exoKapβ1 [1]: 51%
Kapβ1–Alexa Fluor 488 (from UniProt Q14974 1-876) (natural protein) | 3100 | 72 | – | – | –
cNup214 (cysteine-tagged FG domain of human Nup214) (domain or fragment, UniProt P35658 1809-2090, looked up) SPGFGQGGSVFGGTSAATTTAATSGFSFCQASGFGSSNTGSVFGQAASTGGIVFGQQSSSSSGSVFGSGNTGRGGGFFSGLGGKPSQDAANKNPFSSASGGFGSTATSNTSNLFGNSGAKTFGGFASSSFGEQKPTGTFSSGGGSVASQGFGFSSPNKTGGFGAAPVFGSPPTFGGSPGFGGVPAFGSAPAFTSPLGSTGGKVFGEGTAAASAGGFGFGSSSNTTSFGTLASQNAPTFGSLSQQTSGFGTQSSGFSGFGSGTGGFSFGSNNSSVQGFGGWRS | – | – | 110 ± 20 | binds | –
cNup153 (cysteine-tagged FG domain of human Nup153) (domain or fragment, UniProt P49790 874-1475, looked up) CESAKPGTKSGFKGFDTSSSSSNSAASSSFKFGVSSSSSGPSQTLTSTGNFKFGDQGGFKIGVSSDSGSINPMSEGFKFSKPIGDFKFGVSSESKPEEVKKDSKNDNFKFGLSSGLSNPVSLTPFQFGVSNLGQEEKKEELPKSSSAGFSFGTGVINSTPAPANTIVTSENKSSFNLGTIETKSASVAPFTCKTSEAKKEEMPATKGGFSFGNVEPASLPSASVFVLGRTEEKQQEPVTSTSLVFGKKADNEEPKCQPVFSFGNSEQTKDENSSKSTFSFSMTKPSEKESEQPAKATFAFGAQTSTTADQGAAKPVFSFLNNSSSSSSTPATSAGGGIFGSSTSSSNPPVATFVFGQSSNPVSSSAFGNTAESSTSQSLLFSQDSKLATTSSTGTAVTPFVFGPGASSNNTTTSGFGFGATTTSSSAGSSFVFGTGPSAPSASPAFGANQTPTFGQSQGASQPNPPGFGSISSSTALFPTGSQPAPPTFGTVSSSSQPPVFGQQPSQSAFGSGTTPNSSSAFQFGSSTTNFNFTNNSPSGVFTFGANSSTPAASAQPSGSGGFPFNQSPAAFTVGSNGKNVFSSSGTSFSGRKIKTAVRRRK | – | – | – | binds | –
cNup62 (cysteine-tagged FG domain of human Nup62) (domain or fragment, UniProt P37198 1-240, looked up) MSGFNFGGTGAPTGGFTFGTAKTATTTPATGFSFSTSGTGGFNFGAPFQPATSTPSTGLFSLATQTPATQTTGFTFGTATLASGGTGFSLGIGASKLNLSNTAATPAMANPSGFGLGSSNLTNAISSTVTSSQGTAPTGFVFGPSTTSVAPATTSGGFSFTGGSTAQPSGFNIGSAGNSAQPTAPATLPFTPATPAATTAGATQPAAPTPTATITSTGPSLFASIATAPTSSATTGLSLC | – | – | 2860 ± 380 | binds | –
cNup98 (cysteine-tagged FG domain of human Nup98) (domain or fragment, UniProt P52948 1-498, looked up) MFNKSFGTPFGGGTGGFGTTSTFGQNTGFGTTSGGAFGTSAFGSSNNTGGLFGNSQTKPGGLFGTSSFSQPATSTSTGFGFGTSTGTANTLFGTASTGTSLFSSQNNAFAQNKPTGFGNFGTSTSSGGLFGTTNTTSNPFGSTSGSLFGPSSFTAAPTGTTIKFNPPTGTDTMVKAGVSTNISTKHQCITAMKEYESKSLEELRLEDYQANRKGPQNQVGAGTTTGLFGSSPATSSATGLFSSSTTNSGFAYGQNKTAFGTSTTGFGTNPGGLFGQQNQQTTSLFSKPFGQATTTQNTGFSFGNTSTIGQPSTNTMGLFGVTQASQPGGLFGTATNTSTGTAFGTGTGLFGQTNTGFGAVGSTLFGNNKLTTFGSSTTSAPSFGTTSGGLFGNKPTLTLGTNTNTSNFGFGTNTSGNSIFGSKPAPGTLGTGLGAGFGTALGAGQASLFGNNQPKIGGPLGTGAFGAPGFNTTTATLGFGAPQAPVALTDPNASAAQQ | – | – | – | binds | –
